In one assay the target is T1, PEN-2 (human, UniProt Q9NZ42 1-101).
T1 construct: Subunit of the γ-secretase complex in HeLa membrane
Put plainly: photoaffinity labeling of HeLa membrane, streptavidin capture, western blot.

For another assay, the target named is T2, APH-1a (human, UniProt Q96BI3 1-265, limits assumed).
T2 construct: Subunit of the γ-secretase complex in HeLa membrane
The description is as above.

Where no end group is shown, it is not given here. [ ]: non-standard residue; d: D form. Bpa = N[C@@H](Cc1ccc(C(=O)c2ccccc2)cc1)C(=O)O

Excerpt for APH-1a: (§1) After the photolyzed membranes were solubilized, biotinylated proteins were captured, eluted and analyzed by western blotting with antibodies against biotin, PS1, nicastrin, PEN-2 and APH-1.
Excerpt for PEN-2: as §1

B1: Aβ17-23BPA^20-biotin (peptide)
peptide: LVF[Bpa]AED-biotin
notes: used at 300 nM; also called biotinylated photoreactive peptide Aβ17-23; photoactive peptide
With B1, the binding result with PEN-2 and with APH-1a was “no binding (tested: 300 nM)” in each case.

These data come from patent US20100285988A1 (Memorial Sloan Kettering, published 2010).
